# Data: patent publication US20240124585A1 (SUTRO BIOPHARMA, published 2024)
# T1: cynomolgus CD3 epsilon (cynomolgus monkey, UniProt Q95LI5 22-117, limits assumed)
# T1 construct: Recombinant protein; also called cyno CD3E
# T1 sequence: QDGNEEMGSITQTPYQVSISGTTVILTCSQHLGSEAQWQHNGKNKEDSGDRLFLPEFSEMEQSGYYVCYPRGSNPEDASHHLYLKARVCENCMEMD
# Columns and labels:
# [1] = target: T2, human CD3 on T-cell lines (CD3-expressing Jurkat cells; HUT78 cells) (human, UniProt P07766 23-207); assay: flow cytometry; signal on CD3+ Jurkat over CD3- Jurkat RT3-T3.5 cells
# T2 construct: On cells it stands in the CD3/TCR complex
# Protocol: A high-throughput primary screen was performed to rapidly assess cell binding of antibodies produced in small-scale (60 μL) cell-free reactions. In this screen, four components are combined in equal volumes to a final volume of 100 μL/well in a U-bottom 96-well plate (Greiner Cat #650201) or flat bottom 384 well plate (Greiner Cat #781201). […] Plates are then incubated on ice for one hour. Cells are pelleted by spinning at 1500×g for 5 minutes and resuspended in assay buffer. High-throughput flow cytometry is then performed on resuspended cells on a FACS instrument (BD Biosciences FACS Canto II or BD Biosciences LSR II) and data is analyzed with FlowJo software. Antibody binding is assessed by the proportional level of secondary antibody signal (presumably due to binding to our antibody of interest) on Jurkat CD3-positive cells compared to the signal on Jurkat RT3.T3.5 CD3-negative cells.
# [2] = target: T3, human CD3 epsilon (Acro Cat #CDE-H5223) (human, UniProt P07766 23-126); assay: ELISA, coated antigen
# T3 construct: Bought recombinant protein; also called rhCD3E
# [3] = target: CD3-GE; assay: ELISA, coated antigen
# [4] = target: T1, cynomolgus CD3 epsilon; assay: ELISA, coated antigen
# [5] = target: T2, human CD3 on T-cell lines …; assay: flow cytometry, Jurkat cells
# [6] = target: T4, human CD3 delta-epsilon-Fc heterodimer (Acro Biosystems, Cat #CDD-H52WO) (human, UniProt P04234 22-105); assay: single-point ELISA; signal on huCD3DE-Fc over Fc
# T4 construct: Bought; also called CD3DE-Fc; huCD3DE-Fc; not shown: Fc
# Protocol: (§1) Following small-scale cell-free protein synthesis (60 μL reactions), each reaction was diluted 1:50 and tested for binding to CD3 protein by ELISA. Briefly, human CD3 delta-epsilon-Fc heterodimer (CD3DE-Fc, Acro Biosystems, Cat #CDD-H52WO), cynomolgus CD3 delta-epsilon heterodimer (CD3DE, Acro Cat #CDD-C52W4) and human IgG1 Fc (Acro Biosystems, Cat #FCC-H5214) were coated to 384-well Maxisorp plates in 0.2M sodium bicarbonate-carbonate pH 9.4 and blocked with […] in PBST (phosphate buffer saline, […], diluted from Teknova Cat #P2192). Antibodies expressed in CF were diluted 1:50 in 0.20% BSA in PBST and were incubated on the […] plates, washed, and detected with HRP-conjugated anti-human Fab antibodies (Jackson ImmunoResearch, West Grove, PA) and Pierce Pico Supersignal ELISA substrate (ThermoFisher Scientific).
# [7] = target: T5, cynomolgus CD3 delta-epsilon heterodimer (Acro Cat #CDD-C52W4) (cynomolgus monkey, UniProt Q95LI8 22-105); assay: single-point ELISA; signal on cyCD3DE over Fc
# T5 construct: Bought; also called cyCD3DE
# Protocol: as §1
# [8] = target: T3, human CD3 epsilon (Acro Cat #CDE-H5223); assay: SPR (Biacore), scFvFc captured, rhCD3E analyte
# Protocol: Anti-Fab or anti-Fc polyclonal antibodies were immobilized onto a CM5 chip (GE Life Sciences) using amine coupling chemistry (from Amine Coupling Kit, GE Life Sciences). The immobilization steps were carried out at a flow rate of 25 μl/min in 1×HBS-EP+ buffer (GE Life Sciences; 10× Stock diluted before use). The sensor surfaces were activated for 7 min with a mixture of NHS (0.05 M) and EDC (0.2 M). The Anti-Fab or Anti-Fc antibodies were injected over all 4 flow cells at a concentration of 25 μg/mL in 10 mM sodium acetate, pH 4.5, for 7 min. Ethanolamine (1 M, pH 8.5) was injected for 7 min to block any remaining activated groups.
# Off-rate and kinetic binding experiments were performed at 25° C. using 1×HBS-EP+ buffer. Test and control antibodies were injected over the anti-Fab or anti-Fc surface at concentrations of 5-10 μg/mL for 12 seconds at a flow rate of 10 μL/min on flow cells 2, 3 and 4, followed by a buffer wash for 30 seconds at the same flow rate. […] After capturing ligand (antibody) on the anti-Fc or anti-Fab surface, the analyte (human CD3 epsilon, Acro Cat #CDE-H5223) was bound for 180 seconds, followed by a 600 second dissociation phase at a flow rate of 50 μL/min. Between each ligand capture and analyte binding cycle, regeneration was carried out using two injections of 10 mM Glycine pH 2.0 for 30 seconds at 30 μL/min, followed by a 30 second buffer wash step.
# The data was fit with the Biacore T200 Evaluation software, using a 1-1 Langmuir binding model. KD (affinity, nM) was determined as a ratio of the kinetic rate constants calculated from the fits of the association and dissociation phases.
# T5 sequence (Q95LI8 22-105, stated change not applied, one chain of several): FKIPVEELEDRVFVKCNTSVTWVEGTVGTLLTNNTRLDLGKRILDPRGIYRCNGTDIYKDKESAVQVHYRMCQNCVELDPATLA
# T4 sequence (chain, as listed by the source mutant, chain 1 of 2): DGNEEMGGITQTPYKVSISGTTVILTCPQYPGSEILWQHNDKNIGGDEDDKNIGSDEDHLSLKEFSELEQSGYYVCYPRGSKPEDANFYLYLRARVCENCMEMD
# T4 sequence (P04234 22-105, stated change not applied, chain 2 of 2): as the sequence (Q95LI8 22-105, stated change not applied, one chain of several) above, with V5I, K15N, V20I, T32S, N33D, N34I, A64T, N74S, L83V counted along it
# T3 sequence (P07766 23-126 limits assumed): as the sequence (chain, as listed by the source mutant, chain 1 of 2) above
# T2 sequence (P07766 23-207 limits assumed): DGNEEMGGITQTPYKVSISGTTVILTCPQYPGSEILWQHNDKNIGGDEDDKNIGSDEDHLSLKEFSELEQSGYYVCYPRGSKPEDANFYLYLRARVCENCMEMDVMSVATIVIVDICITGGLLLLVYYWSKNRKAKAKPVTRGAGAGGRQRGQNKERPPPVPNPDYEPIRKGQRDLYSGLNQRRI
binder,measurement,setting,value
"SMP1913-F09 (antibody, V domains shown, human IgG1, lambda; also called hSP34-Hc1 + SP34-Lc3; hSP34-HC1+hSP34-LC3) VH: not shown VL: QTVVTQEPSLTVSPGGTVTLTCGSSTGAVTSGYYPNWFQQKPGQAPRGLIGGTKFLAPGTPARFSGSLLGGKAALTLSGVQPEDEAEYYCALWYSNRWVFGGGTQLTVTG",FACS S/N (Jurkat/Jurkat RT3-T3.5 binding),[1],6.2
same,EC50,[2],28.9 nM
same,ELISA Bmax (RLU),[2],1.62e+06 RLU
same,EC50,[3],1110 nM
same,ELISA Bmax (RLU),[3],1.7e+06 RLU
same,EC50,[4],35.6 nM
same,ELISA Bmax (RLU),[4],1.57e+06 RLU
"SMP1913-F04 (antibody, V domains shown, human IgG1, lambda; also called SP34-Hc + SP34-Lc3) VH: not shown VL: QTVVTQEPSLTVSPGGTVTLTCGSSTGAVTSGYYPNWFQQKPGQAPRGLIGGTKFLAPGTPARFSGSLLGGKAALTLSGVQPEDEAEYYCALWYSNRWVFGGGTQLTVTG",FACS S/N (Jurkat/Jurkat RT3-T3.5 binding),[1],5.1
"SMP1913-G05 (antibody, human IgG1, lambda, V domains shown, human IgG1, lambda; also called hSP34-Hc3 + SP34-Lc) VH: EVQLVESGGGLVQPGRSLRLSCTASGFTFNKYAMNWFRQAPGKGLEWVARIRSKYNNYATYYADSVKDRFTISRDDSKSIAYLQMNSLKTEDTAVYYCVRHGNFGNSYISYWAYWGQGTLVTVSS VL: not shown",FACS S/N (Jurkat/Jurkat RT3-T3.5 binding),[1],0.8
"SMP1913-G08 (antibody, human IgG1, lambda, V domains shown, human IgG1, lambda; also called hSP34-Hc3 + SP34-Lc3) VH: EVQLVESGGGLVQPGRSLRLSCTASGFTFNKYAMNWFRQAPGKGLEWVARIRSKYNNYATYYADSVKDRFTISRDDSKSIAYLQMNSLKTEDTAVYYCVRHGNFGNSYISYWAYWGQGTLVTVSS VL: QTVVTQEPSLTVSPGGTVTLTCGSSTGAVTSGYYPNWFQQKPGQAPRGLIGGTKFLAPGTPARFSGSLLGGKAALTLSGVQPEDEAEYYCALWYSNRWVFGGGTQLTVTG",FACS S/N (Jurkat/Jurkat RT3-T3.5 binding),[1],1
"SMP1913-H02 (antibody, V domains shown, human IgG1, lambda; also called hSP34-Hc4 + SP34-Lc3) VH: not shown VL: QTVVTQEPSLTVSPGGTVTLTCGSSTGAVTSGYYPNWFQQKPGQAPRGLIGGTKFLAPGTPARFSGSLLGGKAALTLSGVQPEDEAEYYCALWYSNRWVFGGGTQLTVTG",FACS S/N (Jurkat/Jurkat RT3-T3.5 binding),[1],1
"SMP1913-F03 (antibody, V domains shown, human IgG1, lambda; also called SP34-Hc + SP34-Lc2) VH: not shown VL: QSAVTQPRSVSGSPGQSVTISCGSSTGAVTSGYYPNWYQQHPGKAPKGMIGGTKFLAPGVPDRFSGSLLGNTASLTISGLQAEDEADYYCALWYSNRWVFGGGTQLTVTG",FACS S/N (Jurkat/Jurkat RT3-T3.5 binding),[1],1
"SMP1913-F08 (antibody, V domains shown, human IgG1, lambda; also called hSP34-Hc1 + SP34-Lc2) VH: not shown VL: QSAVTQPRSVSGSPGQSVTISCGSSTGAVTSGYYPNWYQQHPGKAPKGMIGGTKFLAPGVPDRFSGSLLGNTASLTISGLQAEDEADYYCALWYSNRWVFGGGTQLTVTG",FACS S/N (Jurkat/Jurkat RT3-T3.5 binding),[1],0.9
"SRP2037:A03 (scFv, not shown: small tags and cut ends, tested as scFvFc) scFv: EVQLVESGGGLVKPGGSLRLSCAASGFTFSKYAMNWVRQAPGKGLEWVARIRSKYNNYATYYADSVKDRFTISRDDSKNTAYLQINSLKTEDTAVYYCVRHGNFGNSYTSYWAYWGQGTPVTVSSGGGGSGGDGSGGGGSQTVVTQEPSLTVSPGGTVTLTCGSSTGAVTSGYYPNWLQQKPGQAPRGLIGGTKFLAPGTPARFSGSLLGGKAALTLSGVQPEDEAEYYCALWYSNRWVFGGGTQLTVT",Bmax,[5],4540
same,Kd,[5],0.16 nM
same,"huCD3DE-Fc/Fc, ELISA S/N",[6],55.1
same,"cyCD3DE/Fc, ELISA S/N",[7],62.1
same,Kd,[8],1.23 nM
same,koff,[8],0.000235 s⁻¹
"SRP2037:A04 (scFv, not shown: small tags and cut ends, tested as scFvFc) scFv: EVQLVESGGGLVKPGGSLRLSCAASGFTFNKYAMNWVRQAPGKGLEWVARIRSKYNNYATYYADSVKDRFTISRDDSKSTAYLQMNSLKTEDTAVYYCARHGNFGNSYISYWAYWGQGTPVTVSSGGGGSGGDGSGGGGSQTVVTQEPSLTVSPGGTVTLTCGSSTGAVTSGYHPNWLQQKPGQAPRGLIGGTKFLAPGTPARFSGSLLGGKAALTLSGVQPEDEAEYYCALWCSNRWVFGGGTQLTVT",Bmax,[5],4800
same,Kd,[5],1.7 nM
same,"huCD3DE-Fc/Fc, ELISA S/N",[6],14.7
same,"cyCD3DE/Fc, ELISA S/N",[7],19.3
same,Kd,[8],0.367 nM
same,koff,[8],3.27e-06 s⁻¹
"SRP2037:A05 (scFv, not shown: small tags and cut ends, tested as scFvFc) scFv: EVQLVESGGGLVKPGGSLRLSCAASGFTFNKYAMNWVRQAPGKGLEWVARIRSKYNNYATYYADSVKDRFTISRDDSRNTAYLQMNSLKAEDTAVYYCVRHGNFGNSYISYWAYWGQGTPVTVSSGGGGSGGDGSGGGGSQTVVTQEPSLTVSPGGTVTLTCGSSTGAVTSGYYPNWLQQKPGQAPRGLIGGTKFLAPGTPARFSGSLLGGKAALTLSGVQPEDEAEYYCALWYSNRWVFGGGTQLTVT",Bmax,[5],5900
same,Kd,[5],0.12 nM
same,"huCD3DE-Fc/Fc, ELISA S/N",[6],21.2
same,"cyCD3DE/Fc, ELISA S/N",[7],28.9
same,Kd,[8],0.712 nM
same,koff,[8],0.000157 s⁻¹
"SMP1913-F02 (antibody, V domains shown, human IgG1, kappa; also called SP34-Hc + SP34-Lc1) VH: not shown VL: EIVVTQSPGTLSLSPGERATLSCGSSTGAVTSGYYPNWYQQKPGQAPRGLIGGTKFLAPGIPDRFSGSLLGTDATLTISRLEPEDFAVYYCALWYSNRWVFGQGTKLEIKR",FACS S/N (Jurkat/Jurkat RT3-T3.5 binding),[1],0.9
"SMP1913-F07 (antibody, V domains shown, human IgG1, kappa; also called hSP34-Hc1 + SP34-Lc1) VH: not shown VL: EIVVTQSPGTLSLSPGERATLSCGSSTGAVTSGYYPNWYQQKPGQAPRGLIGGTKFLAPGIPDRFSGSLLGTDATLTISRLEPEDFAVYYCALWYSNRWVFGQGTKLEIKR",FACS S/N (Jurkat/Jurkat RT3-T3.5 binding),[1],0.8
"SMP1913-F10 (antibody, V domains shown, human IgG1, lambda; also called hSP34-Hc1 + SP34-Lc4) VH: not shown VL: QTVVTQEPSFSVSPGGTVTLTCGSSTGAVTSGYYPNWYQQTPGQAPRGLIGGTKFLAPGVPDRFSGSLLGNKAALTITGAQADDESDYYCALWYSNRWVFGGGTQLTVTG",FACS S/N (Jurkat/Jurkat RT3-T3.5 binding),[1],1
"SMP1913-F05 (antibody, V domains shown, human IgG1, lambda; also called SP34-Hc + SP34-Lc4) VH: not shown VL: QTVVTQEPSFSVSPGGTVTLTCGSSTGAVTSGYYPNWYQQTPGQAPRGLIGGTKFLAPGVPDRFSGSLLGNKAALTITGAQADDESDYYCALWYSNRWVFGGGTQLTVTG",FACS S/N (Jurkat/Jurkat RT3-T3.5 binding),[1],0.9
"SMP1913-G04 (antibody, human IgG1, lambda, V domains shown, human IgG1, lambda; also called hSP34-Hc2 + SP34-Lc4) VH: EVQLLESGGGLVQPGGSLRLSCAASGFTFNKYAMNWVRQAPGKGLEWVARIRSKYNNYATYYADSVKDRFTISRDDSKNTAYLQMNSLRAEDTAVYYCVRHGNFGNSYISYWAYWGQGTLVTVSS VL: QTVVTQEPSFSVSPGGTVTLTCGSSTGAVTSGYYPNWYQQTPGQAPRGLIGGTKFLAPGVPDRFSGSLLGNKAALTITGAQADDESDYYCALWYSNRWVFGGGTQLTVTG",FACS S/N (Jurkat/Jurkat RT3-T3.5 binding),[1],1
"Mouse SP34 (antibody, V domains shown, also called SP34 mouse monoclonal antibody; MSP34) VH: EVQLVESGGGLVQPKGSLKLSCAASGFTFNTYAMNWVRQAPGKGLEWVARIRSKYNNYATYYADSVKDRFTISRDDSQSILYLQMNNLKTEDTAMYYCVRHGNFGNSYVSWFAYWGQGTLVTVSA VL: QAVVTQESALTTSPGETVTLTCRSSTGAVTTSNYANWVQEKPDHLFTGLIGGTNKRAPGVPARFSGSLIGDKAALTITGAQTEDEAIYFCALWYSNLWVFGGGTKLTVL",EC50,[2],251 nM
same,ELISA Bmax (RLU),[2],123000 RLU
same,EC50,[3],574 nM
same,ELISA Bmax (RLU),[3],3610 RLU
same,EC50,[4],352 nM
same,ELISA Bmax (RLU),[4],116000 RLU
